{"source": "patent US20200277339A1", "target": "recombinant purified fragment of TLR5 ectodomain of fish origin (fish)", "experiment": "competition fluorescence polarization, cell-free", "data": [{"substance": "CBLB502 (ligand)", "values": [{"measurement": "Relative EC50 vs 502, Binding (FP)", "value": 1, "unit": "fold vs 502"}]}]}
